Experimental data as given in patent US20140271653A1 (Regeneron, published 2014).

Legend:
RSV-F.mmh = biological target: T1, RSV-F.mmh (Respiratory Syncytial Virus); experiment: SPR (Biacore), mAb captured via Fc, soluble RSV-F.mmh injected, 25 C
T1 construct: also called recombinant RSV-F; soluble monomeric RSV-F

[1] = biological target: RSV-F of RSV subtype A strain A2 (1540) (respiratory syncytial virus subtype A, …, UniProt P03420 26-574); experiment: cell-based or functional assay

Row | Binder | Kd (RSV-F.mmh) | koff (RSV-F.mmh) | kon (RSV-F.mmh) | t½ (RSV-F.mmh) | IC50 [pM] for RSV A2 Neutralization, Trial 4 [1] | IC50 [pM] for RSV A2 Neutralization, Trial 6 [1] | IC50 [pM] for RSV A2 Neutralization, Trial 7 [1] | IC50 [pM] for RSV A2 Neutralization, Trial 1 [1] | IC50 [pM] for RSV A2 Neutralization, Trial 5 [1] | binding result (RSV-F.mmh)
1 | H1H3591P (antibody, V domains shown) VH: EVQLVESGGGLVQPGRSLRLSCAASGFTFDDYAMHWVRQTPGKGLEWISGISWSSGTIVYADSVKGRFTISRDNAKNSLYLQMNSLRGEDTALYHCAKDGYRWKSYSYGLDVWGQGTTVTVSS VL: EIVMTQSPATLSLSPGERATLSCRPSQSVINNLAWYQQKPGQAPRLLIFGASSRATGIPARFSGSGSGTEFTLTISSLQSEDFALYYCQQYNNWPLTFGGGTKVEIK | 34.2 nM | 0.00153 s⁻¹ | 44600 M⁻¹ s⁻¹ | 0.133 h | 6 pM | 8 pM | 6 pM | – | – | –
2 | H1H3564P (antibody, V domains shown) VH: QVQLVQSGAEVKKPGSSVKVSCKASGGTLSNNAFSWVRQAPGQGLEWLGGFNPIFDTANYAQKFQGRITITLDASTGTVYMELSSLRSEDTGVYYCAGTGAHFEFWGQGTLVTVSS VL: DIQMTQSPSSLSASVGDRVTITCRTSQSISTYLNWYQQKPGKAPKFLIYAASTLQSGVPSRFSGSGSRTDFTLTISSLQPEDFATYYCQQSVSVPYTFGQGTKLEIK | 25 nM | 7.78e-05 s⁻¹ | 3100 M⁻¹ s⁻¹ | 2.47 h | – | – | – | > 10000 pM | – | –
3 | H1H3567P (antibody, V domains shown) VH: QVQLVQSGAEVKKPGASVKVSCKASGYTLTGYYLHWVRQAPGQGLEWMGWINPTSGGTNYAQKFQGRVTMTRDTSISAAFMELSRLRSDDTAVYHCAREFWPHGMDVWGQGTTVTVSS VL: AIQMTQSPSSLSASVGDRVTITCRASQAIRNDLGWYQQKPGKAPKLLIYASSSLQSGVPSRFSGSGSGTDFTLTISSLQPEDFATYYCLADYKYTWTFGQGTKVEIK | 43.4 nM | 0.00263 s⁻¹ | 60500 M⁻¹ s⁻¹ | 0.0667 h | 257 pM | 390 pM | – | – | – | –
4 | H1H3592P (antibody, V domains shown) VH: EVQLVESGGDLVQPGRSLRLSCVASGFTFDDYAMHWVRQAPGKGLEWVSGVSWSGSTVGYADSVKGRFTVSRDNAQKSLYLQMNSLRAEDTALYYCVKDAYKWNYYYYGLDVWGQGTTVTVSS VL: EIVMTQSPATLSVSPGERATLSCRASQTILSNLAWYLQKPGQAPRLLIYGASTRATGLPARFSGSGSGTEFTLTISSLQSEDFAVYYCQQYNNWPLTFGGGTKVEIK | 4.39 nM | 0.000466 s⁻¹ | 106000 M⁻¹ s⁻¹ | 0.417 h | 6 pM | 5 pM | 4 pM | – | – | –
5 | H1H3592P2 (antibody, V domains shown) VH: EVQLVESGGDLVQPGRSLRLSCVASGFTFDDYAMHWVRQAPGKGLEWVSGVSWSGSTVGYADSVKGRFTVSRDNAQKSLYLQMNSLRAEDTALYYCVKDAYKYNYYYYGLDVWGQGTTVTVSS VL: EIVMTQSPATLSVSPGERATLSCRASQTILSNLAWYLQKPGQAPRLLIYGASTRATGLPARFSGSGSGTEFTLTISSLQSEDFAVYYCQQYNNWPLTFGGGTKVEIK | 14.7 nM | 0.00146 s⁻¹ | 99300 M⁻¹ s⁻¹ | 0.133 h | – | – | – | – | – | –
6 | H1H3583P (antibody, V domains shown) VH: QVQLVQSGAEVKKSGSSVKVSCKASGGTFSSYAISWVRQAPGQGLEWMGGIIPIFGTGNYAQKFQGRVTITTDESTSTAYMELSSLRSEDTAVYYCARDSSSSPRYYGMDVWGHGTTVTVSS VL: EIVLTQSPATLSLSPGERATLSCRASQSVTSYLAWYQQKPGQAPRLLIYDVSKRATGIPARFSGSGSGTDFTLTISSLEPEDFATYYCQQRSNWPPTFGQGTRLEIK | 34.4 nM | 0.00308 s⁻¹ | 89400 M⁻¹ s⁻¹ | 0.0667 h | – | – | – | – | 50 pM | –
7 | H1H3565P (antibody, V domains shown) VH: QVQLVESGGGVVQPGRSLRLSCAASGFTFNSYGMHWVRQAPGKGLEWVTFIWSDGSNKYYLDSVKGRFTISRDNSKNTLYLQMNSLRAEDTAVYYCARSGLASYYYYGMDVWGQGTTVTVSS VL: DIQMTQSPSSLSASVGDRVTITCRASQGIRNDLGWYQQKPGKAPKRLIYGASSLQSGVPSRFSGSGSGTEFTLTISSLQPEDFATYSCLQHNSYPWTFGQGTKVEIK | 3.01 nM | 5.8e-05 s⁻¹ | 19300 M⁻¹ s⁻¹ | 3.32 h | – | – | – | > 10000 pM | – | –
8 | H1H3566P (antibody, V domains shown) VH: QVQLVESGGGVVQPGRSLRLSCAASGFTFSSYGMHWVRQAPGKGLEWVVFLWYDGSNKHYADSVKGRFTISRDNSKNTLYLQMNSLRAEDTAVYYCARSGLASYYYYSMDVWGQGTTVTVSS VL: DIQMTQSPSSLSASVGDRVTITCRASQGIRNDLAWYQQKPGKAPKRLIYGASSLHSGVPSRFSGSGSGTEFTLTISSLQPEDFATYSCLQHNSYPWTFGQGTKVEIK | 2.06 nM | 4.2e-05 s⁻¹ | 20400 M⁻¹ s⁻¹ | 4.58 h | – | – | – | > 10000 pM | – | –
9 | H1H3605P (antibody, V domains shown) VH: QVQLQESGPGLVKPSETLSLTCTVSGGFISNYYWSWIRQPPGKGLEWIGYIYYSGSTKYNPSLKSRVTISVDTSKNQFSLKLSSVSAADTAVYYCARDGVVAAAGPPYHYHYGLDVWGQGTTVTVSS VL: DIVMTQSPDSLAVSLGERATINCKSSQNLLYTSSNKNSLAWYQQKPGQPPELLIYWASTRESGVPDRFSGSGSGTDFILTISSLQAEDVAVYYCQQYYSSPWTFGQGTKVEIK | 59 nM | 0.000168 s⁻¹ | 2800 M⁻¹ s⁻¹ | 1.15 h | – | – | – | > 10000 pM | – | –
10 | H1H3608P2 (antibody, V domains shown) VH: QVQLVESGGGVVQPGRSLRLSCAASGFTFSSYGMHWVRQAPGKGLEWVAVIYYEGSNDYYVDSVKGRFTISRDNSKNTLYLQMNSLRAEDTAVYYCARRDWNSFDYWGQGTLVTVSS VL: DIVMTQSPLSLSVTPGEPASISCRSSQNLLNRNGFNYLDWYLQKPGQSPQLLIYLGSNRASGVPDRFSGSGSGTDFTLKISRVEVEDVGVYYCMQAIQTPYTFGQGTKLEIK | 5.35 nM | 2.6e-05 s⁻¹ | 4850 M⁻¹ s⁻¹ | 7.42 h | – | – | – | > 10000 pM | – | –
11 | H1H3603P (antibody, V domains shown) VH: QVQLQESGPGLVKPSETLSLTCTVSGGSISGYYWTWIRQPPGKGLEWIGYIYYSGATNYNPSLKSRVTISLDTSKNQFSLKLSSVTAADTAVYYCARDGNYDILTGYYNYHYYGMDVWGQGTTVTVSS VL: DIQMTQSPSSLSASVGDRVTITCRASQDIGNYLAWFQQKPGKAPESLIYAASILQSGVPSKFSGSGSGTDFTLTISSLQPEDFATYYCQQYNTFPWTFGQGTKVEIK | 41 nM | 0.000123 s⁻¹ | 3000 M⁻¹ s⁻¹ | 1.57 h | – | – | – | > 10000 pM | – | –
12 | H1H3604P (antibody, V domains shown) VH: QVQLVESGGGLVKPGGSLRLSCAASGFTFSDYYMTWIRQAPGRGLEWVSYISDTGSHLYYADSVRGRFTISRDNAKNSLYLQMNNLRAEDTAVYYCARDQDGEMELRFFDYWGQGTLVTVSS VL: EIVLTQSPATLSLSPGERGTLSCRASQSINNYLAWYQQKPGQAPRLLIFDASNRATGIPARFSGSGSGTDFTLTISRIEPEDFAVYYCQQRTNWPLTFGGGTKVEIK | 30 nM | 9.27e-05 s⁻¹ | 3100 M⁻¹ s⁻¹ | 2.08 h | – | – | – | > 10000 pM | – | –
13 | H1H3581P (antibody, V domains shown) VH: EVQLVESGGGLVHPGGSLRLSCEASGFTLSSHVMSWVRQVPGKGLEWVSRISGPGGSTKYADSVQGRFTTSRDNSKNTLYLQMNSLIAEDSAAYYCAKGGGYSGYDWDFYYGMDVWGQGTTVTVSS VL: DIQMTQSPSSVSASVGDRVTITCRASQGISSWLAWYQQKPGKAPKLLIYAASSLQSGVPSRFSGSGSGTDFTLTISSLQPEDFATYYCQQTNSFPLTFGGGTKVDIK | – | – | – | – | – | – | – | > 10000 pM | – | no binding
14 | H1H3607P (antibody, V domains shown) VH: QVQLVESGGGLVKPGGSLRLSCAASGFTFSDYYMTWIRQVPGKGLEWVSYISSTGNNRYYGDSVKGRFAISRDNAKNLLFLQMNSLKAEDTAVYYCARENNWNPYFFYYGMDVWGQGTTVTVSS VL: DIQMTQSPSSVSASVGDRVTITCRASQGISIWLAWYQQKPGKAPKLLISAASTLQSGVPSRFSGSGSGTDFTLTISSLQPEDFATYYCQQANSFPLTFGQGTKVEIK | 35 nM | 0.000148 s⁻¹ | 4200 M⁻¹ s⁻¹ | 1.3 h | – | – | – | > 10000 pM | – | –
15 | H1H3589P (antibody, V domains shown) VH: EVQLVESGGGLVQPGGSLRLSCEASGFTFSTYWMSWVRQAPGKGLEWVANIKQDGSVKYFVDSVKGRFTVSRDNAKNSLYLQMNSLRAEDTALYHCARERHRGSYYGYYDGMDVWGQGTTVTVSS VL: DIQMTQSPSSLSASVGDRVTITCRASQNIDIYLNWYQERPGKAPNLLIYAASSLQSGVPSRFSGSGSGTDFTLTISSLQPEDFATYYCQQSYNTPFTFGGGTKVEIK | 243 nM | 0.00914 s⁻¹ | 37700 M⁻¹ s⁻¹ | 0.0167 h | – | – | – | – | 300 pM | –
16 | H1H3597P (antibody, V domains shown) VH: EVQLVESGGGLVQPGGSLRLSCGASGFTFRDFDMNWVRQAPGRGLEWVSGIGGSGGNTYYADSVKGRFTISRDNSKNTLFLQMSSLRAEDTAVYYCVKDPYGDYRNYYGMDVWGQGTTVTVSS VL: DIVMTQSPLSLPVTPGEPASISCRSSQSLLHSNGYNYLDWYLQKPGQSPQLLIYLGSNRASGVPDRFRGSGSDKDFTLKISRVGAEDVGVYYCMQALQTITFGQGTRLEIK | – | – | – | – | – | – | – | > 10000 pM | – | no binding
17 | H1H3598P (antibody, V domains shown) VH: EVQLVESGGGLGQPGGSLRLSCGASGFMFRNYAMSWVRQAPGKGLEWVSTILDSGDNTYYADSVKGRFTISRDNSKNTLYLQMNSLRAEDTAVYYCAKDPYGDYRDYYGMDVWGQGTTVTVSS VL: DIVMTQSPLSLPVTPGEPASISCRSSQSLLHSNGYNYLDWYLQKPGQSPQLLIYLGSNRASGVPDRFRGSGSGKDFTLKISRVEAEDVGLYYCMQALQTITFGQGTRLEIK | – | – | – | – | – | – | – | > 10000 pM | – | no binding
